Substitutions are numbered along the chain they refer to.
B1: SR360VD (PKC): EBNA2 with mutation of the putative PKC phosphorylation site (protein)
chain: MPTFYLALHGGQTYHLIVDTDSLGNPSLSVIPSNPYQEQLSDTPLIPLTIFVGENTGVPPPLPPPPPPPPPPPPPPPPPPPPPPPPPPSPPPPPPPPPPPQRRDAWTQEPSPLDRDPLGYDVGHGPLASAMRMLWMANYIVRQSRGDRGLILPQGPQTAPQARLVQPHVPPLRPTAPTILSPLSQPRLTPPQPLMMPPRPTPPTPLPPATLTVPPRPTRPTTLPPTPLLTVLQRPTELQPTPSPPRMHLPVLHVPDQSMHPLTHQSTPNDPDSPEPRSPTVFYNIPPMPLPPSQLPPPAAPAQPPPGVINDQQLHHLPSGPPWWPPICDPPQPSKTQGQSRGQSRGRGRGRGRGRGKGKVDDKQRKPGGPWRPEPNTSSPSMPELSPVLGLHQGQGAGDSPTPGPSNAAPVCRNSHTATPNVSPIHEPESHNSPEAPILFPDDWYPPSIDPADLDESWDYIFETTESPSSDEDYVEGPSKRPRPSIQ
B2: LGL389SRT (CR7): EBNA2 with LGL at position 389 in CR7 changed to SRT (protein)
chain: B1 chain with V360S, D361R, L389S, G390R, L391T

Assays:
[1] = target: T1, CBF1/RBPJk (Homo sapiens, UniProt Q06330); assay: EMSA of EBNA2/CBF1 complex formation with in vitro translated EBNA2 peptides; type: binding; conditions: for effect in reducing the amounts of EBNA2/CBF1 complex formed: fold, in words
T1 construct: EMSA using CBF1 purified by heparin-agarose chromatography; endogenous in cells; host or cells: CA46 cells (fractionated extract, heparin-agarose)
T1 sequence (Q06330 whole entry): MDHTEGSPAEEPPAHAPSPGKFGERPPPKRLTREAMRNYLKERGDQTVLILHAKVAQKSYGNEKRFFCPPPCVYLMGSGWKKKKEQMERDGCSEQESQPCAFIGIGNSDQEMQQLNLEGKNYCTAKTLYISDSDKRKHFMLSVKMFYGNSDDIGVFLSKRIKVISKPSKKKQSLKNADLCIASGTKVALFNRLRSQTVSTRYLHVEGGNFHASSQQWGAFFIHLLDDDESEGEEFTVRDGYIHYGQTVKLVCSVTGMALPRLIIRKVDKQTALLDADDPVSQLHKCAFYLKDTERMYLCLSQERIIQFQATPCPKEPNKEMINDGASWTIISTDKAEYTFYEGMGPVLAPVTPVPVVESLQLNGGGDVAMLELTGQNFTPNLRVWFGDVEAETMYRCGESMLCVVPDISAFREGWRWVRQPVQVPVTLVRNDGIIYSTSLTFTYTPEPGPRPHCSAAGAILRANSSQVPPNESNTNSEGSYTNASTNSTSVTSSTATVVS
Description: FIG. 3 is an autoradiogram that depicts the effect of mutations on the ability of an EBNA2 (i.e., E2) peptide comprising amino acids 252-425 to interact with CBF1/RBPJk: probe (lane 1); E2 only (lane 2); lysate (lane 3); CBF1 (lane 4); CBF1 and lysate (lane 5); CBF1 and E2 252-425 (lane 6); CBF1 and del376-425 (lane 7); CBF1 and del343-425 (lane 8); CBF1 and del252-366 (lane 9); CBF1 and del252-309, del398-425 (lane 10); CBF1 and del344-357 (lane 11); CBF1 and II307SR (CR5) (lane 12); CBF1 and GP320SR (CR6) (lane 13); CBF1 and WW323SR (CR6) (lane 14); CBF1 and PI326SR (CR6) (lane 15); CBF1 and SR360VD (PKC) (lane 16); and CBF1 and LGL389SRT (CR7) (lane 17). Results of an EMSA using CBF1 purified by heparin-agarose chromatography and a 30-base pair oligonucleotide probe containing the Cp CBF1 binding site (Ling et al. (1993a), supra) are shown. The wild-type EBNA2 and mutant EBNA2 peptides spanning amino acids 252-425 were in vitro transcribed and translated, and equimolar amounts were added to the binding reactions. Addition of unprogrammed reticulocyte lysate to the CBF1 extract (+lysate) produced a minor bandshift that migrated in the range of the E2/CBF1 complex. The EBNA2/CBF1 complexes (i.e., E2/CBF1 complexes) vary in mobility depending on the size of the added EBNA2 peptide.
FIG. 6 is an EMSA that compares the ability of type A EBNA2 (i.e., EBNA2 comprising amino acids 252-425) and the homologous domains of type B (i.e., EBNA2 comprising amino acids 216-392) and HVP EBNA2 (i.e., HBP EBNA2 comprising amino acids 288-470) to form complexes with CBF1/RBPJk. The EBNA2 peptides and CBF1/RPBPJk were prepared by in vitro transcription and translation. EBNA2 peptides were added with two-fold increases in amount (black triangles) to a binding mixture containing a constant amount of CBF1/RBPJk and a 30-base pair Cp CBF1 binding site probe. Symbols: P, probe only; R, reticulolysate.
The relative positions of the various functional domains the EBNA2 protein are depicted in FIG. 1. To define the amino acids required for interaction with CBF1, various synthetic peptides comprising the promoter targeting domain (i.e., the CBF1/RBPJk interaction domain) were constructed. The truncated and mutated peptides diagrammed in FIG. 2 were synthesized by in vitro transcription-translation, and were tested for their ability to form complexes with CBF1 that could be detected in an electrophoretic mobility shift assay (EMSA) (Ling et al., J. Virol., 69, 1944-1950 (1995)). The expressed peptides were tested using a fractionated extract of EBV negative lymphoblastoid CA46 cells (American Type Culture Collection, Rockville, Md.). The peptides were labeled with ^35S-methionine, and their integrity was confirmed by sodium dodecylsulfate sulfate-polyacrylamide gel electrophoresis (SDS-PAGE). To ensure that equal amounts of the EBNA2 peptides were added to each binding reaction mixture, the SDS-PAGE bands were quantitated using a Molecular Dynamics Phosphorimager, and the volume of the samples was adjusted on the basis of peptide size and the number of methionine residues.

[2] = system: EBV latency C promoter (Cp-CAT); assay: Cp-CAT transactivation by EBNA2 effector DNAs cotransfected in DG75 cells; type: cell-based, Epstein-Barr virus; conditions: for transactivation of Cp-CAT, dose-response, in words: 0-2.0 μg effector DNA, 2 μg target; for % Transactivation: relative EBNA2 transactivation of the Cp, at DNA concentrations giving 50% acetylation for wild-type EBNA2, mutations in full-length EBNA2
Protocol: FIGS. 4A-4B are graphs that depict μg effector versus % acetylation for transactivation in DG75 cells of a Cp-CAT construction (Ling et al. (1993b), supra) cotransfected at 2 μg with increasing amounts (i.e., 0, 0.25, 0.5, 1.0 and 2.0 μg) of the indicated EBNA2 effector DNAs. Immunoblot analysis confirmed the equivalent expression of the different EBNA2 effector constructions in transfected cells.
FIGS. 7A-7B are graphs that depict μg effector versus fold-induction for cotransfection assays comparing the ability of type A EBNA2 and type B EBNA2 to transactivate expression from Cp-CAT (FIG. 7A) and CD23p-CAT (FIG. 7B) (Ling et al. (1994), supra) in DG75 cells. The target plasmids were transfected at a constant amount (2 μg) and the effector DNAs at increasing amounts of 0, 0.25, 0.5, 1.0 and 2.0 μg.
In order to correlate the effect of the mutations on CBF1 interaction measured in the in vitro binding assays with the effects on CBF1 interaction in vivo in cultured cells, the point mutations and the glycine-arginine deletion were incorporated into full-length EBNA2 proteins which were used to study EBNA2 targeting in transactivation assays. The mutant proteins were synthesized in equal abundance in transfected cells as assessed by Western blot analysis. FIGS. 4A and 4B compare the ability of wild-type and mutant EBNA2 proteins to transactivate expression from the EBV latency C promoter in a dose-response assay (Ling et al. (1993b), supra).

Molecule | reduction in EBNA2/CBF1 complex formation ([1]; 252-425 peptide with mutation, relative to wild-type peptide) [%] | effect in reducing the amounts of EBNA2/CBF1 complex formed [1] | transactivation of Cp-CAT, dose-response, in words [2] | % Transactivation [2] [%]
B1 | 40 | approximately two-fold | did not affect transactivation | 110
B2 |  | approximately two-fold | did not affect transactivation | 100

— patent US6495144B2, “EBNA2 peptides and methods of using same” (Johns Hopkins University School of Medicine, priority 1996, dated 2002)
